# B1: PGDM1400 Fab (Fab, V domains shown)
# VH: QVHLTQSGPEVRKPGTSVKVSCKAPGNTLKTYDLHWVRSVPGQGLQWMGWISHEGDKKVIVERFKAKVTIDWDRSTNTAYLQLSGLTSGDTAVYYCAKGSKHRLRDYALYDDDGALNWAVDVDYLSNLEFWGQGTAVTVSS
# VL: DFVLTQSPHSLSVTPGESASISCKSSHSLIHGDRNNYLAWYVQKPGRSPQLLIYLASSRASGVPDRFSGSGSDKDFTLKISRVETEDVGTYYCMQGRESPWTFGQGTKVDIK
# modifications: sulfated tyrosine at position 100F (Tys100F), seen in the electron density map of the Fab crystal structure
# Biological target: BG505 SOSIP.664 gp140 trimer (HIV-1 isolate BG505)
# Test: single-particle negative-stain electron microscopy
binder,measurement,value
B1,stoichiometry (Fab per trimer),1

# Source: patent USRE50268
